The values below come from patent publication US20240327522A1 (Genentech, published 2024).

What all share (assay): SPR binding assay, experiment 1, antibody as ligand, aVb8 as sample
The target in assay [1] is T1, recombinant mouse αvβ8 protein (PARS-17103) (murine, UniProt P43406 31-988; Q0VBD0 43-681, limits assumed).
T1 construct: Made in house; also called mu.aVb8.17103

Assay [2] has as its target T2, recombinant cynomolgus monkey αvβ8 protein (PARS-19393) (cynomolgus monkey, UniProt A0A2K5WCD3 31-992; G7P0S0 43-684).
T2 construct: also called cyno.aVb8-19393; cyno.aVb8

The target in assay [3] is T3, recombinant human αvβ8 protein (PARS-17102) (human).
T3 construct: also called hu.aVb8.17102; not shown: C-terminal acid/basic coils and any purification tags
T3 alpha: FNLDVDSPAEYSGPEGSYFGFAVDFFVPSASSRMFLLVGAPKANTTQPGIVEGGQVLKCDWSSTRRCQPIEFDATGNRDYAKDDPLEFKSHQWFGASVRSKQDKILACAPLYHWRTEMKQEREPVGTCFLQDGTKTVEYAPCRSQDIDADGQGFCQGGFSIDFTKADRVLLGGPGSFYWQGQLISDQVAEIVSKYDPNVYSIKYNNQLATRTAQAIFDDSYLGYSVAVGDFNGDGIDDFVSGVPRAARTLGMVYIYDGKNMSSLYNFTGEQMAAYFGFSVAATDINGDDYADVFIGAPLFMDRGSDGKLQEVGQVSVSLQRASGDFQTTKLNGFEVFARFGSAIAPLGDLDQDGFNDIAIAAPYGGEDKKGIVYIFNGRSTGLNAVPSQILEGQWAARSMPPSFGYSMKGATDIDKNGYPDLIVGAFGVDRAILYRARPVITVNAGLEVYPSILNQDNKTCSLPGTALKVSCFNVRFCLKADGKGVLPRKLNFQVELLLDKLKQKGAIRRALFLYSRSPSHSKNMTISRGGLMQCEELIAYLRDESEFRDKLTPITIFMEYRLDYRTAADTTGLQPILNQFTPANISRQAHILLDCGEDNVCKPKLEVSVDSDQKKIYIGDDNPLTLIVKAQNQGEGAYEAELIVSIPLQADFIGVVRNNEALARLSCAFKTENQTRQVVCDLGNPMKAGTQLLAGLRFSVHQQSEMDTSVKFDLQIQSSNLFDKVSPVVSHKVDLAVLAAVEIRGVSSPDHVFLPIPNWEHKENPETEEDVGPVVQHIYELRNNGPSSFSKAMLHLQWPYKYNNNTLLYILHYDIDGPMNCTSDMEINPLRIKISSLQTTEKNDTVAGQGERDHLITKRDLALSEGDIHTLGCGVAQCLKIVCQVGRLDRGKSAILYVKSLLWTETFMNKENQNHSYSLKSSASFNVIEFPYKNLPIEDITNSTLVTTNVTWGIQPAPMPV
T3 beta: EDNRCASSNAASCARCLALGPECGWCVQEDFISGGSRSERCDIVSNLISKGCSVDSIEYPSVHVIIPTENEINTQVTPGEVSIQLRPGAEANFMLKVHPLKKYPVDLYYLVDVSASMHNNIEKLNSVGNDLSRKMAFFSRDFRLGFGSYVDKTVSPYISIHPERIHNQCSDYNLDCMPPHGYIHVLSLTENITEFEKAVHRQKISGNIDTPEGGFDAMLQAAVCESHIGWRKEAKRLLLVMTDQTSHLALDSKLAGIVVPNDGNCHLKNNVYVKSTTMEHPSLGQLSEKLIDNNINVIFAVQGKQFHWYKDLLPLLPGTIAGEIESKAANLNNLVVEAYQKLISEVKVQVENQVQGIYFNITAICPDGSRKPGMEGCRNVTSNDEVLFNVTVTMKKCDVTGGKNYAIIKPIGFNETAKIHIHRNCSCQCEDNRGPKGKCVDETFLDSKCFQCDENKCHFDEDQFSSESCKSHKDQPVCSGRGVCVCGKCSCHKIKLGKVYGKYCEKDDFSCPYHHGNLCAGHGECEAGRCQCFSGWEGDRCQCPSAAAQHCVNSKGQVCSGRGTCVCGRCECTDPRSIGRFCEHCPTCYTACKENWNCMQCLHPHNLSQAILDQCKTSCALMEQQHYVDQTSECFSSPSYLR

T1 sequence (P43406 31-988 limits assumed, chain 1 of 2): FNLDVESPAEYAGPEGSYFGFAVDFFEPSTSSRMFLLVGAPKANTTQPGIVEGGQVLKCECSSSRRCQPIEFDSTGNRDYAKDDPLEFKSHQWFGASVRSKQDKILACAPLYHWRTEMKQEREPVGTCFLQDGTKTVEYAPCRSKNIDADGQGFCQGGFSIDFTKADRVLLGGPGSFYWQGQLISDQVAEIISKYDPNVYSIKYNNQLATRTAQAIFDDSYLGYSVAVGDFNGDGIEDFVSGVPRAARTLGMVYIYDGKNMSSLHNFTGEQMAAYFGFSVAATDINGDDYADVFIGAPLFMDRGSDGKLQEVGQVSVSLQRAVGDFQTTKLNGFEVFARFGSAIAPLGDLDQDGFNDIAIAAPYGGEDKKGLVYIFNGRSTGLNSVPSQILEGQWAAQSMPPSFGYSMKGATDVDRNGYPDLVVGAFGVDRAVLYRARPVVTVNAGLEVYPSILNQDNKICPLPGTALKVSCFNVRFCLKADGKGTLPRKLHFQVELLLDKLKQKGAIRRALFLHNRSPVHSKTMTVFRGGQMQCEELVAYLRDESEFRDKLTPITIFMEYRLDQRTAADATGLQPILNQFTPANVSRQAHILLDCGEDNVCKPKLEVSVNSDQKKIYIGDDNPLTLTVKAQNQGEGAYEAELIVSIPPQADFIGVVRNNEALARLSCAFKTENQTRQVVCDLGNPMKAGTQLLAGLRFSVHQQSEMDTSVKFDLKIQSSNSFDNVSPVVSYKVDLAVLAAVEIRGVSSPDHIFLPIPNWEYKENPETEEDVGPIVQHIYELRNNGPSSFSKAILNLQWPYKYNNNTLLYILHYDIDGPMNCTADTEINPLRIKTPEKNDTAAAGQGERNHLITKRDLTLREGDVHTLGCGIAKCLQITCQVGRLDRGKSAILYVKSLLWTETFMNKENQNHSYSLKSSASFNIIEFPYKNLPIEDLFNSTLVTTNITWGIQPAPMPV
T1 sequence (Q0VBD0 43-681 limits assumed, chain 2 of 2): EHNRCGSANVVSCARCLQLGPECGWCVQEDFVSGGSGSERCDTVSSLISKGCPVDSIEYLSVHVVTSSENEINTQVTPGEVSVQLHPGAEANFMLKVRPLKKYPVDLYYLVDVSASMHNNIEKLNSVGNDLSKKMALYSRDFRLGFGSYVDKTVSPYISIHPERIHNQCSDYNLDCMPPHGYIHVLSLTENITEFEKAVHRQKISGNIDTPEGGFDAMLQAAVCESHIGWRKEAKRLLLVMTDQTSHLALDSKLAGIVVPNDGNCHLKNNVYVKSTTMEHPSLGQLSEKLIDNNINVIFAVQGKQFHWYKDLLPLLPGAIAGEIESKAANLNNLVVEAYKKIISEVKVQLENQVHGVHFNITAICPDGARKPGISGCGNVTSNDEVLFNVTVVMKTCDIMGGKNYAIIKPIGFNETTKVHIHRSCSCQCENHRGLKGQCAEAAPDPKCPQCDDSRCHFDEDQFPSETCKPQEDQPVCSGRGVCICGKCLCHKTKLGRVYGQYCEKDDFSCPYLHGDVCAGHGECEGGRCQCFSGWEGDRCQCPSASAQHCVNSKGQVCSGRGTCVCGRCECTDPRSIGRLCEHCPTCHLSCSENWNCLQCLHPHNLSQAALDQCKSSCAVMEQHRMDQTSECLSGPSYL

B1: Hu.aVb8-65.H15L2 (aVb8-65.H15L2.hIgG1.LALAPG) (antibody, V domains shown)
VH: EVQLLESGGGLVQPGGSLRLSCAASGIDLSNYAMIWVRQAPGKGLEWVGIISSSDRIWYASWVKGRFTISRDNSKNTLYLQMNSLRAEDTAVYYCSRSVSNSYFDGWNLWGQGTLVTVSS
VL: DIQMTQSPSSVSASVGDRVTITCQASENINSLLAWYQQKPGKAPKLLIYRASTLASGVPSRFSGSGSGTDFTLTISSLQPEDFATYYCQSNYGFTGSGAFFYGFGQGTKVEIKR
notes: Human IgG1 LALAPG; also called PARS-20475-65 (IH) aVb8-65.H15L2.hIgG1.LALAPG; humanized αvβ8-65
Consider B1, for which, in assay [1], the Kd stood at 0.906 nM, the koff was determined as 0.000155 s⁻¹ and the kon worked out at 171000 M⁻¹ s⁻¹. Also, in assay [2], the Kd was found to be 0.48 nM, the off-rate constant (koff) is 0.000164 s⁻¹ and the kon was 341000 M⁻¹ s⁻¹. In addition, in assay [3], the equilibrium dissociation constant (Kd) was 0.384 nM, the koff worked out at 0.000208 s⁻¹ and the kon was found to be 540000 M⁻¹ s⁻¹.
